Assay results reported in US20090062228, “piRNA and uses related thereto” (published 2009).

T1: Aubergine (Aub) (Drosophila melanogaster, UniProt O76922 SEQ:1-866)
T1 sequence: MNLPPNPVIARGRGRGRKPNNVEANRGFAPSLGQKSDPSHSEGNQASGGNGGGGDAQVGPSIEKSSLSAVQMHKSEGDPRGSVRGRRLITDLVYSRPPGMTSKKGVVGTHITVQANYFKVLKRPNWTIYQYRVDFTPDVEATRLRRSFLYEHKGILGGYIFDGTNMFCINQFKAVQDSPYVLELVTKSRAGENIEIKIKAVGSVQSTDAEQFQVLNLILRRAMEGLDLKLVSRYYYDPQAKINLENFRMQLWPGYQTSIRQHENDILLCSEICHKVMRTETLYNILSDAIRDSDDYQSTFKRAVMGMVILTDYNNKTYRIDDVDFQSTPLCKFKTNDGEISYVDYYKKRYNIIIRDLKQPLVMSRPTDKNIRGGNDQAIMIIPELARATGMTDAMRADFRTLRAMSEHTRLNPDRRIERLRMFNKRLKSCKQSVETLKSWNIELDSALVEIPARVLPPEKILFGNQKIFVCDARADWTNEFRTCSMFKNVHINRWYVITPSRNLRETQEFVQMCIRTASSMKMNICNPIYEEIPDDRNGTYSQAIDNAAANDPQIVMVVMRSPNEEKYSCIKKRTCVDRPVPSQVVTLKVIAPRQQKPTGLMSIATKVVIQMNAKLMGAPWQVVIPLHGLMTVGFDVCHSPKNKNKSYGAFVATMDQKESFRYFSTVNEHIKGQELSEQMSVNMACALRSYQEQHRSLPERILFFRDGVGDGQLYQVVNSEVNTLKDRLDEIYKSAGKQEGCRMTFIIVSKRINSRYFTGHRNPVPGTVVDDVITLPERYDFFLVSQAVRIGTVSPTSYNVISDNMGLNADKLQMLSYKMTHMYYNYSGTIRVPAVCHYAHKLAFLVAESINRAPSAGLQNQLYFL

T2: Argonaute 3 (Ago3) (Drosophila melanogaster, UniProt Q7PLK0 SEQ:1-867)
T2 sequence: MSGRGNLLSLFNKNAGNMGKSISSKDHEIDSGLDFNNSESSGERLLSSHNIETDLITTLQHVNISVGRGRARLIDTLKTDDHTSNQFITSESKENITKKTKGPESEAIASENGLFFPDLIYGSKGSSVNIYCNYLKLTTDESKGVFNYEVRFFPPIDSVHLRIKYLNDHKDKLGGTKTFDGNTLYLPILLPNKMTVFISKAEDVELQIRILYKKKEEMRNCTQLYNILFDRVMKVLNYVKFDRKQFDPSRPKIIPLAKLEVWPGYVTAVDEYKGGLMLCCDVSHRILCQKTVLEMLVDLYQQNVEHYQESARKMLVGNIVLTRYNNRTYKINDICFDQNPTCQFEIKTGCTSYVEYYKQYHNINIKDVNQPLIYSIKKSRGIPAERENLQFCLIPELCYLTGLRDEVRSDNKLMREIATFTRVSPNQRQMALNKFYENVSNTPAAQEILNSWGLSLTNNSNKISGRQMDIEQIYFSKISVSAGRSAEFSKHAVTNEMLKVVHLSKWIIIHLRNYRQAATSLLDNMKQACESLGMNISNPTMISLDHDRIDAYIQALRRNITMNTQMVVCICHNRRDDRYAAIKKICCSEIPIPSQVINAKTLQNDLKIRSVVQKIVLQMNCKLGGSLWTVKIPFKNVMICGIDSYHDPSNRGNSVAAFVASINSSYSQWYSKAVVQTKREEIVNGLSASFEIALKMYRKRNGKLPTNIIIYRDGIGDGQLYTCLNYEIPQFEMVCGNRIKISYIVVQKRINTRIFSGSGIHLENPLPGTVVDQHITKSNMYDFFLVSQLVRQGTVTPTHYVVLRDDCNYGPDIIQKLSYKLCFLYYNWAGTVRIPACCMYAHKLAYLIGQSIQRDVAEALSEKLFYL


Assays:
Aubergine (Aub) = biological target: T1, Aubergine (Aub); assay: RNA cloned and sequenced from Aub immunoprecipitate of ovary extract; 5'U; conditions: tags: none; endogenous RNP immunopurified from ovary lysate
Description: (§1) Ovaries were dissected into ice cold PBS, flash frozen in liquid nitrogen and stored at −80 degrees. Ovary extract was prepared in Lysis buffer (20 mM HEPES-NaOH pH 7.0, 150 mM NaCl, 2.5 mM MgCl2, 250 mM Sucrose, 0.05% NP40, 0.5% Triton X-100. 1× Roche-Complete EDTA free) using a glass dounce homogenizer. Extracts were cleared by several spins at 14000 rpm. Extracts (10 microgram/microliter) were incubated with primary antibodies (1:50) for 4 h at 4 degrees per ml of extract. Fifteen microliters of Protein-G Sepharose (Roche) were added and mixtures were further incubated for 1 h at 4 degrees. Beads were washed 4 times in lysis buffer. RNA extraction from beads and 5′ labeling of RNAs was done as described in (Aravin et al., 2006)

Argonaute 3 (Ago3) = biological target: T2, Argonaute 3 (Ago3); assay: RNA cloned and sequenced from Ago3 immunoprecipitate of ovary extract; A at position 10; conditions: tags: none; endogenous RNP immunopurified from ovary lysate
Description: as §1

| Binder | binding result (Aubergine (Aub)) | binding result (Argonaute 3 (Ago3)) |
| --- | --- | --- |
| UACGCAGAGGCCUAAGUAAAUAGUC (ssRNA) [roo antisense piRNA] | binds |  |
| CCUCUGCGUAGGCCAUUUACUUUAAG (ssRNA) [roo sense piRNA] |  | binds |
